Values of other authors as cited in paper PMC3767571.

Target: Sortilin (Homo sapiens) (UniProt Q99523)
UniProt Q99523, sequence (Q99523 78-755): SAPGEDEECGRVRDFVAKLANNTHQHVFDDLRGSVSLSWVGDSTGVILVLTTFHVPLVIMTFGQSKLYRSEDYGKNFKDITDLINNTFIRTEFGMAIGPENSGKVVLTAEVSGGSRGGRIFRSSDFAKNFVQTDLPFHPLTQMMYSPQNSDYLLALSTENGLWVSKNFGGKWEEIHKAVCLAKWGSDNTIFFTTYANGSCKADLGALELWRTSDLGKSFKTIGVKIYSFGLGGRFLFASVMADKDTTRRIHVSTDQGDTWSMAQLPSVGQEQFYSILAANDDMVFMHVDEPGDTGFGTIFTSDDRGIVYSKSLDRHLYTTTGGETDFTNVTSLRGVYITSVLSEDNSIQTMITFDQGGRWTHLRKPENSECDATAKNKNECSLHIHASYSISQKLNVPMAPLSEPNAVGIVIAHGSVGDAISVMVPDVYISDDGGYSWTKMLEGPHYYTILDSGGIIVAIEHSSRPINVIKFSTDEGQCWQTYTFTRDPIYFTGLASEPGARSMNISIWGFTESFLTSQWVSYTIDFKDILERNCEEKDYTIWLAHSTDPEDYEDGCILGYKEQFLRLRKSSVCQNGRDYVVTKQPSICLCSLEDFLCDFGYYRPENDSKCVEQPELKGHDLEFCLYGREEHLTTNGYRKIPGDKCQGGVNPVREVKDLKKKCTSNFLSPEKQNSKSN

Kd: 11 nM
Substance: Progranulin (from UniProt P28799)
